# Results published in publication PMC7195491 (2020).
# T1: DIP-α (Drosophila melanogaster)
# T1 chain: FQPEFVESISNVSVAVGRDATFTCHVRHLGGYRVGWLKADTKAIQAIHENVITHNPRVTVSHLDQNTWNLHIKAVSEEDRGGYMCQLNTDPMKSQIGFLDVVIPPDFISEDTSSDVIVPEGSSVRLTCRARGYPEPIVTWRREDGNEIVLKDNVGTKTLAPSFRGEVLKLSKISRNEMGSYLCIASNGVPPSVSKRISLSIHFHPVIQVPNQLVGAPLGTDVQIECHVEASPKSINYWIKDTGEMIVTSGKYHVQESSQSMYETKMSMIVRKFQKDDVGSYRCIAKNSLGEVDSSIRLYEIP
# Molecular target: T1, DIP-α
# Assay: SPR
row,Kd [µM],Binder
1,29.2,Dpr10 V31K Q29E (domain or fragment) YQRQSVSNNNHNNAEAKPTHAPPSHYPHGHKWNEPYFDLTMPRNITSLVGKSAYLGCRVKHLGNKTVAWIRHRDLHILTVGTYTYTTDQRFQTSYHRDIDEWTLQIKWAQQRDAGVYECQISTEPKRSYSVNLNIVDLIDAETSDIMQQYYNDDAFYIAENRVYQSSNDEFAGMFGPIQTVAVPTATILGGPDLYVDKGSTINLTCIIKFSPEPPTHIFWYHQDKVLSEETSGGRLKFKTIKSEETKSILLIYDADLLHSGKYSCYPSNTEIASIR
2,1.3,Dpr10 (domain or fragment) YQRQSVSNNNHNNAEAKPTHAPPSHYPHGHKWNEPYFDLTMPRNITSLVGKSAYLGCRVKHLGNKTVAWIRHRDLHILTVGTYTYTTDQRFQTSYHRDIDEWTLQIKWAQQRDAGVYECQISTQPVRSYSVNLNIVDLIDAETSDIMQQYYNDDAFYIAENRVYQSSNDEFAGMFGPIQTVAVPTATILGGPDLYVDKGSTINLTCIIKFSPEPPTHIFWYHQDKVLSEETSGGRLKFKTIKSEETKSILLIYDADLLHSGKYSCYPSNTEIASIR
3,11.3,Dpr10 V31K (domain or fragment) YQRQSVSNNNHNNAEAKPTHAPPSHYPHGHKWNEPYFDLTMPRNITSLVGKSAYLGCRVKHLGNKTVAWIRHRDLHILTVGTYTYTTDQRFQTSYHRDIDEWTLQIKWAQQRDAGVYECQISTQPKRSYSVNLNIVDLIDAETSDIMQQYYNDDAFYIAENRVYQSSNDEFAGMFGPIQTVAVPTATILGGPDLYVDKGSTINLTCIIKFSPEPPTHIFWYHQDKVLSEETSGGRLKFKTIKSEETKSILLIYDADLLHSGKYSCYPSNTEIASIR
4,> 300,Dpr11 K31V (domain or fragment) PYLDGYATSNVTTQIGTHAYLPCRVKQLGNKSVSWIRLRDGHILTVDRAVFIADQRFLAIKQPDKYWTLQIKYVQARDAGSYECQVSTEPVVSARVQLQVVVPRTEILGEPDRYVKAGSNVVLRCIVRGALEPPTFIMWYHGAEQLAADSRRHRTQLDPNLPEASGEGQSTIGSLIIESAKKRDTGNYTCSPSNSPSATVT
5,> 300,"Dpr11 K31V,E29Q (domain or fragment) PYLDGYATSNVTTQIGTHAYLPCRVKQLGNKSVSWIRLRDGHILTVDRAVFIADQRFLAIKQPDKYWTLQIKYVQARDAGSYECQVSTQPVVSARVQLQVVVPRTEILGEPDRYVKAGSNVVLRCIVRGALEPPTFIMWYHGAEQLAADSRRHRTQLDPNLPEASGEGQSTIGSLIIESAKKRDTGNYTCSPSNSPSATVT"
6,> 500,Dpr11 (domain or fragment) PYLDGYATSNVTTQIGTHAYLPCRVKQLGNKSVSWIRLRDGHILTVDRAVFIADQRFLAIKQPDKYWTLQIKYVQARDAGSYECQVSTEPKVSARVQLQVVVPRTEILGEPDRYVKAGSNVVLRCIVRGALEPPTFIMWYHGAEQLAADSRRHRTQLDPNLPEASGEGQSTIGSLIIESAKKRDTGNYTCSPSNSPSATVT
